Molecular target: T1, IRAK (UniProt P51617 1-712, limits assumed)
T1 construct: Overexpressed in HEK293 cells and detected by western blotting with anti-IRAK; No tag is stated; also called IL-1 receptor associated Kinase; IRAK1
Assay: co-immunoprecipitation from transfected HEK293 cells: anti-HA IP, anti-IRAK western blot
Procedure: HEK 293 cells were transfected with a 5 x NF-KB reporter gene plasmid and co-transfected with plasmids encoding MAL-1 of SEQ ID NO:2 or MyD88 and increasing concentrations of IRAK. Luciferase reporter gene activity was measured. HEK293 cells were transfected with HA-MAL-1 and IRAK and the resulting overexpressed proteins were immunoprecipitated using an anti-HA antibody to isolate MAL-1 complexes and interactions were detected by western blotting to detect anti-IRAK. IRAK could not be detected in the anti-HA-MAL immunoprecipitates. HEK293 cells were transfected with AU-1-MyD88 and IRAK and the resulting overexpressed proteins were immunoprecipitated using an anti-AU1 antibody to isolate MyD88 complexes and interactions were detected by western blotting for anti-IRAK. IRAK was detected in the anti-Aul-MyD88 immunoprecipitates.

T1 sequence (P51617 whole entry): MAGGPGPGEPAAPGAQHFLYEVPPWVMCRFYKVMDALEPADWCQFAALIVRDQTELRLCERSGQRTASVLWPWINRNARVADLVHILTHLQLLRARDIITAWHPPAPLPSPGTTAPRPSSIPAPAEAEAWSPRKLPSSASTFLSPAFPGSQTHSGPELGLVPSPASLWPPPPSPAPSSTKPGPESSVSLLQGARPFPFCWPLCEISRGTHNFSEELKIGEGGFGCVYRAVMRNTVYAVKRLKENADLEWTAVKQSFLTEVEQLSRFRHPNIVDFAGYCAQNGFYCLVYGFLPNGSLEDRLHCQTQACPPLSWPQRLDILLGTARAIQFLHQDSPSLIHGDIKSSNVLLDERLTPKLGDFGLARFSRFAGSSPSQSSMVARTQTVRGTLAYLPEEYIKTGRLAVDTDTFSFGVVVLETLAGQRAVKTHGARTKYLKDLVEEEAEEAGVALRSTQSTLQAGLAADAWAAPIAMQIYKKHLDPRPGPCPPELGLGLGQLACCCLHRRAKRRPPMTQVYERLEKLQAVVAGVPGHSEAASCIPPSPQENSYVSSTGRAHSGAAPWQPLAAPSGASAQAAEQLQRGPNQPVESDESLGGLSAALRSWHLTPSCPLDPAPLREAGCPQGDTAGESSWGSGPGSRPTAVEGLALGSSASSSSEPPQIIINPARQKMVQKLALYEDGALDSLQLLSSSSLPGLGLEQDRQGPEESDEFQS

- binding result: no binding
B1: full-length labelled MAL-1 (HA-MAL-1) (other, not shown: small tags and cut ends)
chain: MASSTSLPAPGSRPKKPLGKMADWFRQTLLKKPKKRPNSPESTSSDASQPTSQDNPLPPSLSSVTSPSLPPTHASDSGSSRWSKDYDVCVCHSEEDLVAAQDLVSYLEGSTASLRCFLQLRDATPGGAIVSELCQALSSSHCRVLLITPGFLQDPWCKYQMLQALTEAPGAEGCTIPLLSGLSRAAYPPELRFMYYVDGRGPDGGFRQVKEAVMRCKLLQEGEGERDSATVSDLL
notes: Overexpressed in HEK293 cells; also called tagged MAL-1
